Assay results taken from patent US20210332131A1 (TIGATX, published 2021).

T1: CD20 (UniProt P11836 1-297, limits assumed)
T1 construct: whole, on cells
T1 sequence (looked up): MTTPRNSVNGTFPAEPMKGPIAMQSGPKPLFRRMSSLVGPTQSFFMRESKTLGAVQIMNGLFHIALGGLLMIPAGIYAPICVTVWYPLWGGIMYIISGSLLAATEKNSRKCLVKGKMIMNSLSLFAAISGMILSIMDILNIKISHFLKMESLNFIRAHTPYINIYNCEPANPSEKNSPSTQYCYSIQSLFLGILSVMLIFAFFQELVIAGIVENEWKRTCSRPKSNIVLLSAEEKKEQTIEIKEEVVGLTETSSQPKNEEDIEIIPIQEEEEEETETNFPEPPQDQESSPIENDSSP


Experiments:
CD20 = biological target: T1, CD20; assay: flow cytometry, bispecific supernatant on SKBR3-CD20 cells, without or after pre-block of CD47 with m9, detection anti-IgA PE, GeoMFI; SKBR3 WT (CD20-) panel as comparison
Protocol: (§1) After the pre-block the IgA antibodies were applied as described above. Samples were analyzed on a BD Canto II, and data has been analyzed using FlowJo (BD).
Cells were fixed and measured by FACS.

CD47 [1] = biological target: T2, CD47 (human, UniProt Q08722 19-323); assay: flow cytometry, bispecific supernatant on SKBR3 WT (CD20-/CD47+) and SKBR3-CD20 cells, without or after pre-block of CD47 with mIgG1 anti-CD47 PerCP-Cy5.5, detection anti-IgA PE, GeoMFI
T2 construct: whole, on cells; also called Cluster of Differentiation 47; human CD47
Protocol: as §1
Cells were fixed and measured by FACS.

CD47 [2] = biological target: T2, CD47; assay: flow cytometry on SKBR3 WT cells (CD20-/CD47+), detection anti-IgA PE, GeoMFI
Protocol: as §1

CD47 [3] = biological target: T2, CD47; assay: flow cytometry on SKBR3 WT cells (CD20-/CD47+), detection anti-IgA PE
Protocol: as §1

CD47 [4] = biological target: T2, CD47; assay: flow cytometry on human erythrocytes (CD235a+), bispecific supernatant, detection anti-human IgA, % positive cells
Protocol: A Histopaque/ficoll isolation was performed to separate the erythrocytes from the PMN/PBMC. Plasma, PBMC, ficoll, histopaque and PMN have been discarded. The remaining pellet of erythrocytes were washed in PBS, spun for 5 minutes at 2400 rpm and pellet was resuspended in 5 mL PBS. […] Dilutions are done in FACS buffer (1% BSA in PBS). Incubated for 30 minutes at RT in the dark, excess unbound antibody was washed away with FACS buffer. 40 uL was added in FACS buffer diluted detection antibody (goat F(ab)′2 anti-human IgA-FITC (Southern Biotech; dilution 1:100), incubated for 30 minutes at RT in the dark, excess unbound antibody was washed away with FACS buffer. Samples were fixed by adding 1% PFA to pelleted cells. Measure on Canto II (BD), gating on CD235-positive events.

T2 sequence (Q08722 19-323): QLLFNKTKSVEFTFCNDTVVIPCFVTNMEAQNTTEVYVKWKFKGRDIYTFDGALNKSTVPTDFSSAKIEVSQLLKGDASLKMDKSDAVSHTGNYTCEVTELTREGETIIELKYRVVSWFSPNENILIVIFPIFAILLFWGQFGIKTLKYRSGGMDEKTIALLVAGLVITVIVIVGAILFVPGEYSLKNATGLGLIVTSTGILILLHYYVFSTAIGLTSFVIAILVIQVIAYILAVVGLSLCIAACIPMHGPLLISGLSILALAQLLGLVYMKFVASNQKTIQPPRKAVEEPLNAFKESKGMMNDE

binding result (CD20)	Binder	also measured
binds	DVD-IgA scFv_LC bispecific antibody #6 (Obi-scFv: 2.3D11_LC) (bispecific antibody, Tetravalent homodimer; Obinituzumab (CD20) scFv on the 2.3D11 light chain; also called bispecific #6) heavy: QVQLQESGPGLVKPSGTLSLTCAVSGVSIRSINWWNWVRQPPGKGLEWIGEIYHSGSTNYNPSLKSRVTISVDKSKNQFSLKLNSVTAADTAVYYCARDGGIAVTDYYYYGLDVWGQGTTVTVSSASPTSPKVFPLSLDSTPQDGNVVVACLVQGFFPQEPLSVTWSESGQGVTARNFPPSQDASGDLYTTSSQLTLPATQCPDGKSVTCHVKHYTNPSQDVTVPCRVPPPPPCCHPRLSLHRPALEDLLLGSEANLTCTLTGLRDASGATFTWTPSSGKSAVQGPPERDLCGCYSVSSVLPGSAQPWNHGETFTCTAAHPELKTPLTATLSKSGNTFRPEVHLLPPPSEELALNELVTLTCLARGFSPKDVLVRWLQGSQELPREKYLTWASRQEPSQGTTTFAVTSILRVAAEDWKKGDTFSCMVGHEALPLAFTQKTIDRLAGK light: not shown	
binds	DVD-IgA bispecific antibody #2 (Obi-2.3D11) (bispecific antibody, Tetravalent homodimer, outer domain CD20 (Obinituzumab), inner domain CD47 (2.3D11); also called DVD-IgA Obi-2.3D11) heavy: QVQLVQSGAEVKKPGSSVKVSCKASGYAFSYSWINWVRQAPGQGLEWMGRIFPGDGDTDYNGKFKGRVTITADKSTSTAYMELSSLRSEDTAVYYCARNVFDGYWLVYWGQGTLVTVSSSGGGGSQVQLQESGPGLVKPSGTLSLTCAVSGVSIRSINWWNWVRQPPGKGLEWIGEIYHSGSTNYNPSLKSRVTISVDKSKNQFSLKLNSVTAADTAVYYCARDGGIAVTDYYYYGLDVWGQGTTVTVSSASPTSPKVFPLSLDSTPQDGNVVVACLVQGFFPQEPLSVTWSESGQGVTARNFPPSQDASGDLYTTSSQLTLPATQCPDGKSVTCHVKHYTNPSQDVTVPCRVPPPPPCCHPRLSLHRPALEDLLLGSEANLTCTLTGLRDASGATFTWTPSSGKSAVQGPPERDLCGCYSVSSVLPGSAQPWNHGETFTCTAAHPELKTPLTATLSKSGNTFRPEVHLLPPPSEELALNELVTLTCLARGFSPKDVLVRWLQGSQELPREKYLTWASRQEPSQGTTTFAVTSILRVAAEDWKKGDTFSCMVGHEALPLAFTQKTIDRLAGK light: not shown	
binds	DVD-IgA bispecific antibody #1 (5A3M5-Obi) (bispecific antibody, Tetravalent homodimer, outer domain CD47 (5A3M5), inner domain CD20 (Obinituzumab)) heavy: not shown light: DIQMTQSPSSLSASVGDRVTITCQASQDINKYLNWYQQKPGKAPKLLIYGASRLETGVPSRFSGSGSGTDFTFTISSLQPEDIATYYCQQKHPRYPRTFGQGTKVEIKSGGGGSDIVMTQTPLSLPVTPGEPASISCRSSKSLLHSNGITYLYWYLQKPGQSPQLLIYQMSNLVSGVPDRFSGSGSGTDFTLKISRVEAEDVGVYYCAQNLELPYTFGGGTKVEIKRTVAAPSVFIFPPSDEQLKSGTASVVCLLNNFYPREAKVQWKVDNALQSGNSQESVTEQDSKDSTYSLSSTLTLSKADYEKHKVYACEVTHQGLSSPVTKSFNRGEC	binding result (CD47 [1]): no binding
	2.3D11-IgA2 (antibody, V domains shown, May be the same as IgA3.0-2.3D11; also called bivalent monospecific antibody 2.3D11; anti-CD47 antibody 2.3D11) VH: QVQLQESGPGLVKPSGTLSLTCAVSGVSIRSINWWNWVRQPPGKGLEWIGEIYHSGSTNYNPSLKSRVTISVDKSKNQFSLKLNSVTAADTAVYYCARDGGIAVTDYYYYGLDVWGQGTTVTVSS VL: EIVLTQSPATLSLSPGERATLSCRASESVSSNLAWYQQKPGQAPRLLIYGAFNRATGIPARFSGSGSGTDFTLTISSLEPEDFAVYYCQQRSDWFTFGGGTKVEIK	binding result (CD47 [2]): binds
binds	DVD-IgA scFv_LC bispecific antibody #5 (5A3M5-scFv: Obi_LC) (bispecific antibody, Tetravalent homodimer; 5A3M5 (CD47) scFv on the Obinituzumab light chain) heavy: QVQLVQSGAEVKKPGSSVKVSCKASGYAFSYSWINWVRQAPGQGLEWMGRIFPGDGDTDYNGKFKGRVTITADKSTSTAYMELSSLRSEDTAVYYCARNVFDGYWLVYWGQGTLVTVSSASPTSPKVFPLSLDSTPQDGNVVVACLVQGFFPQEPLSVTWSESGQGVTARNFPPSQDASGDLYTTSSQLTLPATQCPDGKSVTCHVKHYTNPSQDVTVPCRVPPPPPCCHPRLSLHRPALEDLLLGSEANLTCTLTGLRDASGATFTWTPSSGKSAVQGPPERDLCGCYSVSSVLPGSAQPWNHGETFTCTAAHPELKTPLTATLSKSGNTFRPEVHLLPPPSEELALNELVTLTCLARGFSPKDVLVRWLQGSQELPREKYLTWASRQEPSQGTTTFAVTSILRVAAEDWKKGDTFSCMVGHEALPLAFTQKTIDRLAGK light: not shown	
	Obi-IgA3.0 (antibody, V domains shown, Monospecific anti-CD20 IgA3.0 control; also called IgA3.0-Obi; anti-CD20 Obi antibody) VH: QVQLVQSGAEVKKPGSSVKVSCKASGYAFSYSWINWVRQAPGQGLEWMGRIFPGDGDTDYNGKFKGRVTITADKSTSTAYMELSSLRSEDTAVYYCARNVFDGYWLVYWGQGTLVTVSS VL: DIVMTQTPLSLPVTPGEPASISCRSSKSLLHSNGITYLYWYLQKPGQSPQLLIYQMSNLVSGVPDRFSGSGSGTDFTLKISRVEAEDVGVYYCAQNLELPYTFGGGTKVEIKR	binding result (CD47 [3]): no binding (tested: 1 ug/mL (from paragraph 462, not on the sheet))
binds	DVD-IgA scFv_HC bispecific antibody #3 (5A3M5-scFv: Obi_HC) (bispecific antibody, Tetravalent homodimer; 5A3M5 (CD47) scFv on the Obinituzumab heavy chain; Tested as raw HEK293F supernatant) heavy: not shown light: DIVMTQTPLSLPVTPGEPASISCRSSKSLLHSNGITYLYWYLQKPGQSPQLLIYQMSNLVSGVPDRFSGSGSGTDFTLKISRVEAEDVGVYYCAQNLELPYTFGGGTKVEIKRTVAAPSVFIFPPSDEQLKSGTASVVCLLNNFYPREAKVQWKVDNALQSGNSQESVTEQDSKDSTYSLSSTLTLSKADYEKHKVYACEVTHQGLSSPVTKSFNRGEC	
binds	DVD-IgA scFv_HC bispecific antibody #4 (Obi-scFv: 2.3D11_HC) (bispecific antibody, Tetravalent homodimer; Obinituzumab (CD20) scFv on the 2.3D11 heavy chain; Tested as raw HEK293F supernatant; also called bispecific #4) heavy: QVQLVQSGAEVKKPGSSVKVSCKASGYAFSYSWINWVRQAPGQGLEWMGRIFPGDGDTDYNGKFKGRVTITADKSTSTAYMELSSLRSEDTAVYYCARNVFDGYWLVYWGQGTLVTVSSGGGGSGGGGSGGGGSDIVMTQTPLSLPVTPGEPASISCRSSKSLLHSNGITYLYWYLQKPGQSPQLLIYQMSNLVSGVPDRFSGSGSGTDFTLKISRVEAEDVGVYYCAQNLELPYTFGGGTKVEIKSGGGGSQVQLQESGPGLVKPSGTLSLTCAVSGVSIRSINWWNWVRQPPGKGLEWIGEIYHSGSTNYNPSLKSRVTISVDKSKNQFSLKLNSVTAADTAVYYCARDGGIAVTDYYYYGLDVWGQGTTVTVSSASPTSPKVFPLSLDSTPQDGNVVVACLVQGFFPQEPLSVTWSESGQGVTARNFPPSQDASGDLYTTSSQLTLPATQCPDGKSVTCHVKHYTNPSQDVTVPCRVPPPPPCCHPRLSLHRPALEDLLLGSEANLTCTLTGLRDASGATFTWTPSSGKSAVQGPPERDLCGCYSVSSVLPGSAQPWNHGETFTCTAAHPELKTPLTATLSKSGNTFRPEVHLLPPPSEELALNELVTLTCLARGFSPKDVLVRWLQGSQELPREKYLTWASRQEPSQGTTTFAVTSILRVAAEDWKKGDTFSCMVGHEALPLAFTQKTIDRLAGK light: not shown	binding result (CD47 [4]): binds
